Values of other authors in paper PMC5626786.

Molecular target: Ark1p peptide (Saccharomyces cerevisiae) (UniProt P53974)
Chain of UniProt P53974 (P53974 whole entry): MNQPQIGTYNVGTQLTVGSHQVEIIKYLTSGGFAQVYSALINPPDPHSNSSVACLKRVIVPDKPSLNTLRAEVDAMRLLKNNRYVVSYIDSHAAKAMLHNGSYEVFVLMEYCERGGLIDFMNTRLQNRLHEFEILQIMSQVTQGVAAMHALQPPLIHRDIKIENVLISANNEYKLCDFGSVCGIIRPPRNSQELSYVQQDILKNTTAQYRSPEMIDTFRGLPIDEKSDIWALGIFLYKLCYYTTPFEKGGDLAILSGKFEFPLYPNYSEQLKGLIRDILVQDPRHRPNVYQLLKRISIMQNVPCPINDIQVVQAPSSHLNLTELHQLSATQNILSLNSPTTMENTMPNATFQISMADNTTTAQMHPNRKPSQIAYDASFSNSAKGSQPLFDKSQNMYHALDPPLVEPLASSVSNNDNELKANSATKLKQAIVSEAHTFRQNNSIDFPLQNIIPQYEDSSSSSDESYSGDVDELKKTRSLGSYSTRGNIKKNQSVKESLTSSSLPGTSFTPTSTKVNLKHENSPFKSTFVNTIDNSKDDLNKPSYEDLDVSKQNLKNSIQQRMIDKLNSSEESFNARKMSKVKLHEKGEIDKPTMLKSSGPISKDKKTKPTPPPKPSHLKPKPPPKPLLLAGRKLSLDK

Kd: 4.4 µM
Substance: Abp1p SH3 (from UniProt P15891)
